Assay results reported in patent USRE46170E1, “Insulin derivatives” (Novo Nordisk A/S, priority 2005, dated 2016).
Each block holds one substance with its values, some of them ahead of it.

What was measured:
[1] = Hydrophobicity (hydrophobic index) relative to human insulin by isocratic RP-HPLC; format: physicochemical; details: LiChrosorb RP18 column, isocratic elution at 40° C., sodium phosphate buffer pH 7.3/acetonitrile
Description: The elution was monitored by following the UV absorption of the eluate at 214 nm. Void time, t0, was found by injecting 0.1 mM sodium nitrate.

human insulin receptor = human insulin receptor (Homo sapiens, UniProt P06213); test: Insulin receptor binding, SPA microtiterplate antibody capture assay; details: purified recombinant human insulin receptor - exon 11; A14 Tyr[125I]-human insulin tracer; 16 hours incubation
Description: SPA-PVT antibody-binding beads, anti-mouse reagent (Amersham Biosciences, Cat No. PRNQ0017) were mixed with 25 ml of binding buffer (100 mM HEPES pH 7.8; 100 mM sodium chloride, 10 mM MgSO4, 0.025% Tween-20). […] A total of 100 μl was then added and a dilution series is made from appropriate samples. To the dilution series was then added 100 μl of reagent mix and the samples were incubated for 16 hours while gently shaken. The phases were the then separated by centrifugation for 1 min and the plates counted in a Topcounter. The binding data were fitted using the nonlinear regression algorithm in the GraphPad Prism 2.01 (GraphPad Software, San Diego, Calif.).

Chain of human insulin receptor (P06213 28-746 isoform P06213-2 limits assumed): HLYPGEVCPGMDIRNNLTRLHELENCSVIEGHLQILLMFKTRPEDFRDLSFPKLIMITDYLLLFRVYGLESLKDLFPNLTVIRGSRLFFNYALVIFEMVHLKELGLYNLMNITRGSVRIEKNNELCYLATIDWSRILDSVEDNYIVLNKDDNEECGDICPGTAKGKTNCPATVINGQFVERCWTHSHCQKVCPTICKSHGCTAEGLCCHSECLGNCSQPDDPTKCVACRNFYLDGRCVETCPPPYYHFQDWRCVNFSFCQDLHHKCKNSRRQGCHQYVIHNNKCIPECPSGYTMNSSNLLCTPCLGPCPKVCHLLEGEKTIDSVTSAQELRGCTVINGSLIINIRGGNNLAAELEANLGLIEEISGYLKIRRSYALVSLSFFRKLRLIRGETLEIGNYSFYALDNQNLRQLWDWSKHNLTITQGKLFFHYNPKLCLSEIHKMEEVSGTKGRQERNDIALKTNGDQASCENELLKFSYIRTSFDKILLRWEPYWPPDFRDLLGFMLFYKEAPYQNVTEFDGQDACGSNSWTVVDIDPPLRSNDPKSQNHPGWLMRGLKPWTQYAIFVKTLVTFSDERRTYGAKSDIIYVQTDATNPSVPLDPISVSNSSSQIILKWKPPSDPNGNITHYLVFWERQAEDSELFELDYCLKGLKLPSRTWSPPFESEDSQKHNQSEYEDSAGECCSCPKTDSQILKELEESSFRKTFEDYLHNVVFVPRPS
Chain of human insulin receptor (P06213 763-1382 partner limits assumed): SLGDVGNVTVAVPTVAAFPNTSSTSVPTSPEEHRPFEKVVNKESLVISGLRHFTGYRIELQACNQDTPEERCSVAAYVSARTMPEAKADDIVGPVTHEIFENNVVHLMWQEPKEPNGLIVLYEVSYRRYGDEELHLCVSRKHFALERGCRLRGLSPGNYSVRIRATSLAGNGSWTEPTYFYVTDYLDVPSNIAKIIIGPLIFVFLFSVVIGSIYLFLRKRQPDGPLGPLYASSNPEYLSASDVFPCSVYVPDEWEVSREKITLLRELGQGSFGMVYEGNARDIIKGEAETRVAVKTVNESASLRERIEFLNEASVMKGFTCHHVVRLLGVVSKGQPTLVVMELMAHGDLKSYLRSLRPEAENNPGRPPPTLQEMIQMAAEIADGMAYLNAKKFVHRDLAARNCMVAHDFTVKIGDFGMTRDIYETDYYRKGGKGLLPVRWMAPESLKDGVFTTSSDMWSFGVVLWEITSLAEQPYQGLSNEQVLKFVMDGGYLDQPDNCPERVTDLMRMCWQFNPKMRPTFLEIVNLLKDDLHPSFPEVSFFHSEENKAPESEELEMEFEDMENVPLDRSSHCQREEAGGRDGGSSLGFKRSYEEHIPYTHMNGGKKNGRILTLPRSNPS

Substance: N^εB29-[3-Carboxy-5-(octadecandioyl-N-carboxyethylglycin)aminobenzoyl] desB30 human insulin [Example 15]
k′rel [1]: 0.662

Substance: N^εB29—N—(HOOC(CH2)15CO)—N-(carboxyethyl)-CH2-para-C6H4CO] desB30 human insulin [Example 4]
k′rel [1]: 1.23

Receptor binding (% of human insulin) (human insulin receptor): 15 % of human insulin
Substance: N^εB29—N—(HOOC(CH2)16CO)—N(carboxyethyl)-CH2-para-C6H4CO] desB30 human insulin [Example 3]
k′rel [1]: 2.03

Substance: N^εB29-11-(4-Carboxy-phenoxy) undecanoyl γ-L-glutamyl desB30 insulin [Example 26]
Receptor binding (% of human insulin) (human insulin receptor): 55 % of human insulin | k′rel [1]: 0.482

Substance: N^εB29—[N—HOOC(CH2)14CO)—N-(carboxethyl)-CH2-ortho C6H4CO] desB30 human insulin [Example 7]
Receptor binding (% of human insulin) (human insulin receptor): 11 % of human insulin | k′rel [1]: 0.905

Substance: N^εB29-(3-Carboxy-5-octadecandioylaminobenzoyl) des(B30) human insulin [Example 10]
Receptor binding (% of human insulin) (human insulin receptor): 19 % of human insulin | k′rel [1]: 2.97

Substance: N^εB29-[(5-{[(2-Carboxyethyl)-(15-carboxypentadecanoyl)amino]methyl}furan-2-carbonyl)desB30 human insulin [Example 5]
Receptor binding (% of human insulin) (human insulin receptor): 13 % of human insulin | k′rel [1]: 1.19

Receptor binding (% of human insulin) (human insulin receptor): 28 % of human insulin
Substance: N^εB29—[N—(HOOC(CH2)13CO)—N-(carboxyethyl)-CH2-para-C6H4CO] desB30 human insulin [Example 2]
k′rel [1]: 0.81

Substance: N^εB29-10-(4-Carboxyphenoxy)decanoyl beta-Asp desB30 insulin [Example 25]
Receptor binding (% of human insulin) (human insulin receptor): 42 % of human insulin | k′rel [1]: 0.348

Substance: N^εB29-{4-Carboxy-4-[10-(4-carboxy-phenoxy)-decanoylamino]-butyryl}desB30 human insulin [Example 14]
Receptor binding (% of human insulin) (human insulin receptor): 46 % of human insulin | k′rel [1]: 0.388

Substance: N^εB29-(3-Carboxy-5-hexadecandioylaminobenzoyl) des(B30)insulin [Example 9]
Receptor binding (% of human insulin) (human insulin receptor): 12 % of human insulin | k′rel [1]: 1.7

Substance: N^εB29-ω-carboxypentadecanoyl-γ-L-glutamyl 4-aminomethyl-benzoyl) desB30 human insulin [Example 11]
Receptor binding (% of human insulin) (human insulin receptor): 14 % of human insulin | k′rel [1]: 1.12

Substance: N^εB29-{4-[2-(4-carboxymethylphenyl)ethyl]phenyl}acetyl-γ-L-glutamyl desB30 human insulin [Example 21]
k′rel [1]: 0.291

Substance: N^εB29-(3-Carboxy-5-(14-carboxytetradecyloxy)benzoyl) desB30 human insulin [Example 13]
k′rel [1]: 1.175

Substance: N^εB29-10-(4-carboxyphenylsulfanyl)decanoyl-γ-L-glutamyl desB30 human insulin [Example 23]
Receptor binding (% of human insulin) (human insulin receptor): 101 % of human insulin | k′rel [1]: 0.475

Substance: N^εB29-ω-carboxypentadecanoyl-(4-aminomethylbenzoyl)-γ-L-glutamyl desB30 human insulin [Example 18]
k′rel [1]: 1.18

Substance: N^εB29-4-{[(2-Carboxyethyl)-(15-carboxypentadecanoyl)amino]methyl}benzoyl)-γ-L-glutamyl desB30 human insulin [Example 20]
k′rel [1]: 0.399

Substance: N^εB29—[N—HOOC(CH2)14CO)—N-(carboxyethyl)-CH2-para-C6H4CO] desB30 human insulin [Example 1]
Receptor binding (% of human insulin) (human insulin receptor): 18 % of human insulin

Substance: N^εB29{3-[(3,5-Bis-carboxymethoxy-benzyl)-(15-carboxypentadecanoyl)amino]-propionyl desB30 human insulin [Example 16]
k′rel [1]: 0.45

Substance: N^εB29-(3-Carboxy-4-(14-carboxytetradecyloxy)benzoyl) desB30 human insulin [Example 12]
k′rel [1]: 1.51

Substance: N^εB29-(3-carboxy-4-hexdecandioylaminobenzoyl) desB30 human insulin [Example 22]
k′rel [1]: 1.075

Receptor binding (% of human insulin) (human insulin receptor): 17 % of human insulin
Substance: N^εB29—[N—(HOOC(CH2)14CO)—N-(carboxyethyl)-para-C6H4CO] desB30 human insulin [Example 8]
k′rel [1]: 1.08
